Sequences and labels used below:
B1: 042517-B02 (protein)
chain: MALPVTALLLPLALLLHAARPQSALTQPASASGSPGQSVTISCTGTSSDVGGYNYVSWYQQHPGKAPKLMIYDVSNRPSGVSNRFSGSKSGNTASLTISGLQAEDEADYYCSSYTSSSTLYVFGTGTQLTVLLEDLKNVFPPEVAVFEPSKAEIAHTQKATLVCLATGFYPDHVELSWWVNGKEVHSGVCTDPQPLKEQPALNDSRYCLSSRLRVSATFWQNPRNHFRCQVQFYGLSENDEWTQDRAKPVTQIVSAEAWGRADCGITSASYHQGVLSATILYEILLGKATLYAVLVSALVLMAMVKRKDSRGRAKRSGSGATNFSLLKQAGDVEENPGPTSMDWIWRILFLVGAATGAHSFEEVQLQQSGPGLVKPSQTLSLTCAISGDSMLSNSDTWNWIRQSPSRGLEWLGRTYHRSTWYDDYASSVRGRVSINVDTSKNQYSLQLNAVTPEDTGVYYCARVRLQDGNSWSDAFDVWGQGTMVTVSSTRIQNPDPAVYQLRDSKSSDKSVCLFTDFDSQTNVSQSKDSDVYITDKCVLDMRSMDFKSNSAVAWSNKSDFACANAFNNSIIPEDTFFPSSDVPCDVKLVEKSFETDTNLNFQNLSVIGFRILLLKVAGFNLLMTLRLWSSRAKRSGSGVKQTLNFDLLKLAGDVESNPGPSRGHMTEYKPTVRLATRDDVPRAVRTLAAAFADYPATRHTVDPDRHIERVTELQELFLTRVGLDIGKVWVADDGAAVAVWTTPESVEAGAVFAEIGPRMAELSGSRLAAQQQMEGLLAPHRPKEPAWFLATVGVSPDHQGKGLGSAVVLPGVEAAERAGVPAFLETSAPRNLPFYERLGFTVTADVEVPEGPRTWCMTRKPGA
B2: 041917-L04 (protein)
chain: MALPVTALLLPLALLLHAARPLEGKPIPNPLLGLDSTGSGEDLKNVFPPEVAVFEPSKAEIAHTQKATLVCLATGFYPDHVELSWWVNGKEVHSGVCTDPQPLKEQPALNDSRYCLSSRLRVSATFWQNPRNHFRCQVQFYGLSENDEWTQDRAKPVTQIVSAEAWGRADCGITSASYHQGVLSATILYEILLGKATLYAVLVSALVLMAMVKRKDSRGRAKRSGSGATNFSLLKQAGDVEENPGPTSMALPVTALLLPLALLLHAARPQVQLVQSGAEVKKPGASVKVSCKASGYTFTSYDINWVRQATGQGLEWMGWMNPNSGNTGYAQKFQGRVTMTRNTSISTAYMELSSLRSEDTAVYYCARGDSTKVEIKGGGGSGGGGSGGGGSQSVLTQPRSVSGSPGQSVTISCTGTSSDVGGYNYVSWYQQHPGEAPKLIIYDADKRPSGISNRFSSGKSGNTASLTISGLQVEDEADYYCCSYAGGSTWVFGGGTKVTVLTREQKLISEEDGSGIQNPDPAVYQLRDSKSSDKSVCLFTDFDSQTNVSQSKDSDVYITDKCVLDMRSMDFKSNSAVAWSNKSDFACANAFNNSIIPEDTFFPSSDVPCDVKLVEKSFETDTNLNFQNLSVIGFRILLLKVAGFNLLMTLRLWSSRAKRSGSGVKQTLNFDLLKLAGDVESNPGPSRGHMTEYKPTVRLATRDDVPRAVRTLAAAFADYPATRHTVDPDRHIERVTELQELFLTRVGLDIGKVWVADDGAAVAVWTTPESVEAGAVFAEIGPRMAELSGSRLAAQQQMEGLLAPHRPKEPAWFLATVGVSPDHQGKGLGSAVVLPGVEAAERAGVPAFLETSAPRNLPFYERLGFTVTADVEVPEGPRTWCMTRKPGA
B3: 062717-P06 (protein)
chain: MALPVTALLLPLALLLHAARPLEGKPIPNPLLGLDSTGSGEDLKNVFPPEVAVFEPSKAEIAHTQKATLVCLATGFYPDHVELSWWVNGKEVHSGVCTDPQPLKEQPALNDSRYCLSSRLRVSATFWQNPRNHFRCQVQFYGLSENDEWTQDRAKPVTQIVSAEAWGRADCGITSASYHQGVLSATILYEILLGKATLYAVLVSALVLMAMVKRKDSRGRAKRSGSGATNFSLLKQAGDVEENPGPTSMALPVTALLLPLALLLHAARPEVQLQQSGPGLVKPSQTLSLTCAISGDSVSSNSAAWNWIRQSPSRGLEWLGRTYYRSKWYSDYAVSVKSRITINPDTSKNQFSLQLNSVTPEDTAVYYCARDPYDFWSGYPDAFDIWGQGTMVTVSSGGGGSGGGGSGGGGSQSALTQPASVSGSPGQSITISCTGTSSDVGGYNYVSWYQQHPGKAPKVIISEVNNRPSGVSHRFSGSKSGNTASLTISGLQAEDEADYFCSSYTSGRTLYVFGTGSKVTVLGTREQKLISEEDGSGIQNPDPAVYQLRDSKSSDKSVCLFTDFDSQTNVSQSKDSDVYITDKCVLDMRSMDFKSNSAVAWSNKSDFACANAFNNSIIPEDTFFPSSDVPCDVKLVEKSFETDTNLNFQNLSVIGFRILLLKVAGFNLLMTLRLWSSRAKRSGSGVKQTLNFDLLKLAGDVESNPGPSRGHMTEYKPTVRLATRDDVPRAVRTLAAAFADYPATRHTVDPDRHIERVTELQELFLTRVGLDIGKVWVADDGAAVAVWTTPESVEAGAVFAEIGPRMAELSGSRLAAQQQMEGLLAPHRPKEPAWFLATVGVSPDHQGKGLGSAVVLPGVEAAERAGVPAFLETSAPRNLPFYERLGFTVTADVEVPEGPRTWCMTRKPGA
B4: 042517-A03 (protein)
chain: MALPVTALLLPLALLLHAARPQSALTQPASASGSPGQSVTISCTGTSSDVGGYNYVSWYQQHPGKAPKLMIYDVSNRPSGVSNRFSGSKSGNTASLTISGLQAEDEADYYCSSYTSSSTLYVFGTGTQLTVLLEIQNPDPAVYQLRDSKSSDKSVCLFTDFDSQTNVSQSKDSDVYITDKCVLDMRSMDFKSNSAVAWSNKSDFACANAFNNSIIPEDTFFPSSDVPCDVKLVEKSFETDTNLNFQNLSVIGFRILLLKVAGFNLLMTLRLWSSRAKRSGSGVKQTLNFDLLKLAGDVESNPGPTSMDWIWRILFLVGAATGAHSFEEVQLQQSGPGLVKPSQTLSLTCAISGDSMLSNSDTWNWIRQSPSRGLEWLGRTYHRSTWYDDYASSVRGRVSINVDTSKNQYSLQLNAVTPEDTGVYYCARVRLQDGNSWSDAFDVWGQGTMVTVSSTREDLKNVFPPEVAVFEPSKAEIAHTQKATLVCLATGFYPDHVELSWWVNGKEVHSGVCTDPQPLKEQPALNDSRYCLSSRLRVSATFWQNPRNHFRCQVQFYGLSENDEWTQDRAKPVTQIVSAEAWGRADCGITSASYHQGVLSATILYEILLGKATLYAVLVSALVLMAMVKRKDSRGRAKRSGSGATNFSLLKQAGDVEENPGPSRGHMTEYKPTVRLATRDDVPRAVRTLAAAFADYPATRHTVDPDRHIERVTELQELFLTRVGLDIGKVWVADDGAAVAVWTTPESVEAGAVFAEIGPRMAELSGSRLAAQQQMEGLLAPHRPKEPAWFLATVGVSPDHQGKGLGSAVVLPGVEAAERAGVPAFLETSAPRNLPFYERLGFTVTADVEVPEGPRTWCMTRKPGA
B5: 062717-O02 (protein)
chain: MALPVTALLLPLALLLHAARPLEGKPIPNPLLGLDSTGSGEDLKNVFPPEVAVFEPSKAEIAHTQKATLVCLATGFYPDHVELSWWVNGKEVHSGVCTDPQPLKEQPALNDSRYCLSSRLRVSATFWQNPRNHFRCQVQFYGLSENDEWTQDRAKPVTQIVSAEAWGRADCGITSASYHQGVLSATILYEILLGKATLYAVLVSALVLMAMVKRKDSRGRAKRSGSGATNFSLLKQAGDVEENPGPTSMALPVTALLLPLALLLHAARPEVQLQQSGPGLVKPSQTLSLTCAISGDSVLSNSDTWNWIRQSPSRGLEWLGRTYHRSTWYDDYASSVRGRVSINVDTSKNQYSLQLNAVTPEDTGVYYCARDRLQDGNSWSDAFDVWGQGTMVTVSSGGGGSGGGGSGGGGSQSALTQPASVSGSPGQSITISCTGTSSDVGGYNYVSWYQQHPGKAPKLMIYDVSNRPSGVSNRFSGSKSGNTASLTISGLQAEDEADYYCSSYTSSSTLVYVFGTGTKVTVLTREQKLISEEDGSGIQNPDPAVYQLRDSKSSDKSVCLFTDFDSQTNVSQSKDSDVYITDKCVLDMRSMDFKSNSAVAWSNKSDFACANAFNNSIIPEDTFFPSSDVPCDVKLVEKSFETDTNLNFQNLSVIGFRILLLKVAGFNLLMTLRLWSSRAKRSGSGVKQTLNFDLLKLAGDVESNPGPSRGHMTEYKPTVRLATRDDVPRAVRTLAAAFADYPATRHTVDPDRHIERVTELQELFLTRVGLDIGKVWVADDGAAVAVWTTPESVEAGAVFAEIGPRMAELSGSRLAAQQQMEGLLAPHRPKEPAWFLATVGVSPDHQGKGLGSAVVLPGVEAAERAGVPAFLETSAPRNLPFYERLGFTVTADVEVPEGPRTWCMTRKPGA
B6: 041117-S01 (protein)
chain: MALPVTALLLPLALLLHAARPEVQLQQSGPGLVKPSQTLSLTCAISGDSVLSNSDTWNWIRQSPSRGLEWLGRTYHRSTWYDDYASSVRGRVSINVDTSKNQYSLQLNAVTPEDTGVYYCARDRLQDGNSWSDAFDVWGQGTMVTVSSLEDLKNVFPPEVAVFEPSKAEIAHTQKATLVCLATGFYPDHVELSWWVNGKEVHSGVCTDPQPLKEQPALNDSRYCLSSRLRVSATFWQNPRNHFRCQVQFYGLSENDEWTQDRAKPVTQIVSAEAWGRADCGITSASYHQGVLSATILYEILLGKATLYAVLVSALVLMAMVKRKDSRGRAKRSGSGATNFSLLKQAGDVEENPGPTSMDWIWRILFLVGAATGAHSFEQSALTQPASVSGSPGQSITISCTGTSSDVGGYNYVSWYQQHPGKAPKLMIYDVSNRPSGVSNRFSGSKSGNTASLTISGLQAEDEADYYCSSYTSSSTLVYVFGTGTKVTVLTRIQNPDPAVYQLRDSKSSDKSVCLFTDFDSQTNVSQSKDSDVYITDKCVLDMRSMDFKSNSAVAWSNKSDFACANAFNNSIIPEDTFFPSSDVPCDVKLVEKSFETDTNLNFQNLSVIGFRILLLKVAGFNLLMTLRLWSSRAKRSGSGVKQTLNFDLLKLAGDVESNPGPSRGHMTEYKPTVRLATRDDVPRAVRTLAAAFADYPATRHTVDPDRHIERVTELQELFLTRVGLDIGKVWVADDGAAVAVWTTPESVEAGAVFAEIGPRMAELSGSRLAAQQQMEGLLAPHRPKEPAWFLATVGVSPDHQGKGLGSAVVLPGVEAAERAGVPAFLETSAPRNLPFYERLGFTVTADVEVPEGPRTWCMTRKPGA

In the first experiment the test system is target antigen-expressing cell line. The experiment is described as follows: Jurkat NFAT-GFP assay, coculture with target cell lines expressing the respective target antigen (summary Table 10A). Also on record: key: The signs +/−, +, 2+ etc. after the name of the cell lines indicate the relative degree of positivity on the Jurkat-NFAT-GFP assay as measured by the % GFP positive cells; +: relative degree of positivity on the Jurkat-NFAT-GFP assay as measured by the % GFP positive cells; 2+: relative degree of positivity on the Jurkat-NFAT-GFP assay as measured by the % GFP positive cells. Type of experiment: cell-based, human. The conditions noted are these: SIR-expressing Jurkat-NFAT-GFP cells cocultured with NALM6; relative % GFP positive cells. The method in brief:
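Read-out: % GFP+ cells by FACS. SIR-transduced, puromycin-selected Jurkat NFAT-GFP (IL-2 promoter reporter) cocultured ~4–18 h with target line, E:T ~1:2; parental cells as control; graded +/−, +, 2+ relative to parental.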
As to B1, the “NFAT-GFP ASSAY Positive Cell lines: NALM6” value is “(+/−)”.

Still in this experiment, the particulars now being: SIR-expressing Jurkat-NFAT-GFP cells cocultured with RAJI; relative % GFP positive cells.
On to B2, for which the “NFAT-GFP ASSAY Positive Cell lines: RAJI” value is recorded as “RAJI (+/−)”.

In the case of B3, the “NFAT-GFP ASSAY Positive Cell lines: RAJI” value is recorded as “RAJI (+/−)”.

Regarding B4, the “NFAT-GFP ASSAY Positive Cell lines: RAJI” value is on record as “RAJI (+)”.

Regarding B5, the “NFAT-GFP ASSAY Positive Cell lines: RAJI” value is listed as “RAJI (+/−)”.

Turning to B6, the “NFAT-GFP ASSAY Positive Cell lines: RAJI” value is “RAJI (+/−)”.

Regarding B1, the “NFAT-GFP ASSAY Positive Cell lines: RAJI” value is reported as “RAJI (+), NALM6”.

Source of the values: patent publication US12269859B2, “Synthetic immune receptors and methods of use thereof” (Angeles Therapeutics, Inc., priority 2016, dated 2025).
